Patent publication US20030118612A1 (MAXYGEN, published 2003)
Residue numbers refer to the chain shown, from its start. In names and notes the source's numbering stands.

T1: human G-CSF receptor (human, UniProt Q99062 25-836)
T1 sequence (looked up): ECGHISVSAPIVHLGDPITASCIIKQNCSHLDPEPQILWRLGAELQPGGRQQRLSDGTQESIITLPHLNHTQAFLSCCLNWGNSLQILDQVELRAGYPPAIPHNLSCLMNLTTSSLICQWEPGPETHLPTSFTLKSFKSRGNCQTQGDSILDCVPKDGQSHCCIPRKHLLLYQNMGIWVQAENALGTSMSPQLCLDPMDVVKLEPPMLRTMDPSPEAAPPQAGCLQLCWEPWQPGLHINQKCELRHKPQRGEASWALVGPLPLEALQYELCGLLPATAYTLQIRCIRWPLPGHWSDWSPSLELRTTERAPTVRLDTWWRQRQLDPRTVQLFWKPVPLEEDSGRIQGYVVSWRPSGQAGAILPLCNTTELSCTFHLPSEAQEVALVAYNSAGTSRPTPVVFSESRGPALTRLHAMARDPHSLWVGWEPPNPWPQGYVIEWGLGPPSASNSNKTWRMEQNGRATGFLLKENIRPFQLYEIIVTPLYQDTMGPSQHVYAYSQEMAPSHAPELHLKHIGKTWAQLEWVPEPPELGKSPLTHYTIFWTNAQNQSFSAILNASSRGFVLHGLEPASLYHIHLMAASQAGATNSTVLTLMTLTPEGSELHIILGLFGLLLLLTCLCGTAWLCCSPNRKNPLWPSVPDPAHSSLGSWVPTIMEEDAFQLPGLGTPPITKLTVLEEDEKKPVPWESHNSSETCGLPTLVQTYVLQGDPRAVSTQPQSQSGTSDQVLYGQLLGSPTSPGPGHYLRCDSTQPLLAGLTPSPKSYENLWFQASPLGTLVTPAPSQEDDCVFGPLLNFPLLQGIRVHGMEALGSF

B1: G-CSF variant K16/34/40R Q120K conjugated to SPA-PEG 5000 (ligand)
chain: TPLGPASSLPQSFLLRCLEQVRKIQGDGAALQERLCATYRLCHPEELVLLGHSLGIPWAPLSSCPSQALQLAGCLSQLHSGLFLYQGLLQALEGISPELGPTLDTLQLDVADFATTIWQKMEELGMAPALQPTQGAMPAFASAFQRRAGGVLVASHLQSFLEVSYRVLRHLAQP
modifications: SPA-PEG 5000 conjugated to the available PEGylation sites
B2: G-CSF variant K16/34/40R Q90K Q120K conjugated to SPA-PEG 5000 (ligand)
chain: B1 chain with Q90K
modifications: SPA-PEG 5000 conjugated to the available PEGylation sites
B3: G-CSF variant K16/34/40R Q70K Q120K conjugated to SPA-PEG 5000 (ligand)
chain: B1 chain with Q70K
modifications: SPA-PEG 5000 conjugated to the available PEGylation sites
B4: G-CSF variant K16/34/40R Q158, non-conjugated (ligand)
chain: B1 chain with K120Q, Q158K
B5: G-CSF variant K16/34/40R T105K, non-conjugated (ligand)
chain: B1 chain with T105K, K120Q
B6: G-CSF variant K16/34/40R Q90K Q120K, non-conjugated (ligand)
chain: B1 chain with Q90K
B7: G-CSF variant K16/34/40R S159K conjugated to SPA-PEG 5000 (ligand)
chain: B1 chain with K120Q, S159K
modifications: SPA-PEG 5000 conjugated to the available PEGylation sites
B8: G-CSF variant K16/34/40R Q120K T133K, non-conjugated (ligand)
chain: B1 chain with T133K
B9: G-CSF variant K16/34/40R Q90K, non-conjugated (ligand)
chain: B1 chain with Q90K, K120Q
B10: G-CSF variant K16/34/40R D104K conjugated to SPA-PEG 5000 (ligand)
chain: B1 chain with D104K, K120Q
modifications: SPA-PEG 5000 conjugated to the available PEGylation sites
B11: G-CSF variant K16/34/40R Q70K Q120K, non-conjugated (ligand)
chain: B1 chain with Q70K
B12: G-CSF variant K16/34/40R T105K Q120K, non-conjugated (ligand)
chain: B1 chain with T105K
B13: G-CSF variant K16/34/40R Q134K, non-conjugated (ligand)
chain: B1 chain with K120Q, Q134K
B14: G-CSF variant K16/34/40R Q90K T105K, non-conjugated (ligand)
chain: B1 chain with Q90K, T105K, K120Q
B15: G-CSF variant K16/34/40R Q120K S142K, non-conjugated (ligand)
chain: B1 chain with S142K
B16: G-CSF variant K16/34/40R R147K conjugated to SPA-PEG 5000 (ligand)
chain: B1 chain with K120Q, R147K
modifications: SPA-PEG 5000 conjugated to the available PEGylation sites
B17: G-CSF variant K16/34/40R D104K, non-conjugated (ligand)
chain: B1 chain with D104K, K120Q
B18: G-CSF variant 16R conjugated to SPA-PEG 5000 (ligand)
chain: B1 chain with R34K, R40K, K120Q
modifications: SPA-PEG 5000 conjugated to the available PEGylation sites
B19: G-CSF variant 16Q, non-conjugated (ligand)
chain: B1 chain with R16Q, R34K, R40K, K120Q
B20: G-CSF variant K16/34/40R S142K, non-conjugated (ligand)
chain: B1 chain with K120Q, S142K
B21: G-CSF variant K16/34/40R S155K, non-conjugated (ligand)
chain: B1 chain with K120Q, S155K
B22: G-CSF variant K16/34/40R T133K, non-conjugated (ligand)
chain: B1 chain with K120Q, T133K
B23: G-CSF variant K16/34/40R Q134K conjugated to SPA-PEG 5000 (ligand)
chain: B1 chain with K120Q, Q134K
modifications: SPA-PEG 5000 conjugated to the available PEGylation sites
B24: G-CSF variant K16/34/40R S155K conjugated to SPA-PEG 5000 (ligand)
chain: B1 chain with K120Q, S155K
modifications: SPA-PEG 5000 conjugated to the available PEGylation sites
B25: G-CSF variant K16/34/40R T105K Q120K conjugated to SPA-PEG 5000 (ligand)
chain: B1 chain with T105K
modifications: SPA-PEG 5000 conjugated to the available PEGylation sites
B26: G-CSF variant K16/34/40R Q70K Q90K T105K conjugated to SPA-PEG 5000 (ligand)
chain: B1 chain with Q70K, Q90K, T105K, K120Q
modifications: SPA-PEG 5000 conjugated to the available PEGylation sites
B27: G-CSF variant K16/34/40R Q120K T133K conjugated to SPA-PEG 5000 (ligand)
chain: B1 chain with T133K
modifications: SPA-PEG 5000 conjugated to the available PEGylation sites
B28: G-CSF variant K16/34/40R T105K conjugated to SPA-PEG 5000 (ligand)
chain: B1 chain with T105K, K120Q
modifications: SPA-PEG 5000 conjugated to the available PEGylation sites
B29: G-CSF variant 23Q, non-conjugated (ligand)
chain: B1 chain with R16K, K23Q, R34K, R40K, K120Q
B30: G-CSF variant K16/34/40R Q70K Q90K conjugated to SPA-PEG 5000 (ligand)
chain: B1 chain with Q70K, Q90K, K120Q
modifications: SPA-PEG 5000 conjugated to the available PEGylation sites
B31: G-CSF variant K16/34/40R S142K conjugated to SPA-PEG 5000 (ligand)
chain: B1 chain with K120Q, S142K
modifications: SPA-PEG 5000 conjugated to the available PEGylation sites
B32: G-CSF variant K16/34/40R S159K, non-conjugated (ligand)
chain: B1 chain with K120Q, S159K
B33: G-CSF variant K16/34/40R Q70K Q90K Q120K, non-conjugated (ligand)
chain: B1 chain with Q70K, Q90K
B34: G-CSF variant 16Q conjugated to SPA-PEG 5000 (ligand)
chain: B1 chain with R16Q, R34K, R40K, K120Q
modifications: SPA-PEG 5000 conjugated to the available PEGylation sites
B35: G-CSF variant K16/34/40R Q90K conjugated to SPA-PEG 5000 (ligand)
chain: B1 chain with Q90K, K120Q
modifications: SPA-PEG 5000 conjugated to the available PEGylation sites
B36: G-CSF variant K16/34/40R Q90K S159K, non-conjugated (ligand)
chain: B1 chain with Q90K, K120Q, S159K
B37: G-CSF variant K16/34/40R Q120K S142K conjugated to SPA-PEG 5000 (ligand)
chain: B1 chain with S142K
modifications: SPA-PEG 5000 conjugated to the available PEGylation sites
B38: G-CSF variant K16/34/40R Q158 conjugated to SPA-PEG 5000 (ligand)
chain: B1 chain with K120Q, Q158K
modifications: SPA-PEG 5000 conjugated to the available PEGylation sites
B39: G-CSF variant K16/34/40R T105K S159K conjugated to SPA-PEG 5000 (ligand)
chain: B1 chain with T105K, K120Q, S159K
modifications: SPA-PEG 5000 conjugated to the available PEGylation sites
B40: G-CSF variant K16/34/40R T105K S159K, non-conjugated (ligand)
chain: B1 chain with T105K, K120Q, S159K
B41: G-CSF variant K16/34/40R Q90K T105K conjugated to SPA-PEG 5000 (ligand)
chain: B1 chain with Q90K, T105K, K120Q
modifications: SPA-PEG 5000 conjugated to the available PEGylation sites
B42: G-CSF variant K16/34/40R Q120K, non-conjugated (ligand)
chain: B1 chain
B43: G-CSF variant K16/34/40R R147K, non-conjugated (ligand)
chain: B1 chain with K120Q, R147K
B44: G-CSF variant K16/34/40R Q70K Q90K T105K, non-conjugated (ligand)
chain: B1 chain with Q70K, Q90K, T105K, K120Q
B45: G-CSF variant K16/34/40R T133K conjugated to SPA-PEG 5000 (ligand)
chain: B1 chain with K120Q, T133K
modifications: SPA-PEG 5000 conjugated to the available PEGylation sites
B46: G-CSF variant K16/34/40R conjugated to SPA-PEG 12000 (ligand)
chain: B1 chain with K120Q
modifications: conjugated to SPA-PEG 12000

These binders were tested against T1, human G-CSF receptor (assay: cell-based or functional assay).

First: B1
Second: B2
The “EC50 (% of hG-CSF) conjugated to SPA-PEG 5000” value of the first is higher: 20 % of hG-CSF for the first, 15 % of hG-CSF for the second.

Going from B3 to B7, the “EC50 (% of hG-CSF) conjugated to SPA-PEG 5000” value falls from 25 % of hG-CSF to 3 % of hG-CSF.

Going from B10 to B16, the “EC50 (% of hG-CSF) conjugated to SPA-PEG 5000” value rises from 0.9 % of hG-CSF to 1 % of hG-CSF.

Compared with B18, B23 is lower in “EC50 (% of hG-CSF) conjugated to SPA-PEG 5000” value: 1 % of hG-CSF for the first, 0.2 % of hG-CSF for the second.

Going from B24 to B25, the “EC50 (% of hG-CSF) conjugated to SPA-PEG 5000” value rises from 1 % of hG-CSF to 8 % of hG-CSF.

Compared with B26, B27 is higher in “EC50 (% of hG-CSF) conjugated to SPA-PEG 5000” value: 4 % of hG-CSF for the first, 8 % of hG-CSF for the second.

First: B28
Second: B30
The “EC50 (% of hG-CSF) conjugated to SPA-PEG 5000” value of the first is lower: 10 % of hG-CSF for the first, 20 % of hG-CSF for the second.

Going from B31 to B34, the “EC50 (% of hG-CSF) conjugated to SPA-PEG 5000” value falls from 7 % of hG-CSF to 1 % of hG-CSF.

First: B35
Second: B37
The “EC50 (% of hG-CSF) conjugated to SPA-PEG 5000” value of the first is higher: 20 % of hG-CSF for the first, 2 % of hG-CSF for the second.

Compared with B38, B39 is higher in “EC50 (% of hG-CSF) conjugated to SPA-PEG 5000” value: 5 % of hG-CSF for the first, 20 % of hG-CSF for the second.

B41 and B45 are the same in “EC50 (% of hG-CSF) conjugated to SPA-PEG 5000” value: 10 % of hG-CSF for the first, 10 % of hG-CSF for the second.

Compared with B4, B5 is higher in “EC50 (% of hG-CSF) non-conjugated” value: 20 % of hG-CSF for the first, 30 % of hG-CSF for the second.

Compared with B6, B8 is lower in “EC50 (% of hG-CSF) non-conjugated” value: 25 % of hG-CSF for the first, 20 % of hG-CSF for the second.

Going from B9 to B11, the “EC50 (% of hG-CSF) non-conjugated” value falls from 30 % of hG-CSF to 25 % of hG-CSF.

Going from B12 to B13, the “EC50 (% of hG-CSF) non-conjugated” value falls from 20 % of hG-CSF to 10 % of hG-CSF.

First: B14
Second: B15
The “EC50 (% of hG-CSF) non-conjugated” value of the first is higher: 40 % of hG-CSF for the first, 10 % of hG-CSF for the second.

Going from B17 to B19, the “EC50 (% of hG-CSF) non-conjugated” value rises from 10 % of hG-CSF to 80 % of hG-CSF.

B20 and B21 are the same in “EC50 (% of hG-CSF) non-conjugated” value: 20 % of hG-CSF for the first, 20 % of hG-CSF for the second.

Compared with B22, B29 is higher in “EC50 (% of hG-CSF) non-conjugated” value: 30 % of hG-CSF for the first, 80 % of hG-CSF for the second.

B32 and B33 are the same in “EC50 (% of hG-CSF) non-conjugated” value: 20 % of hG-CSF for the first, 20 % of hG-CSF for the second.

Going from B36 to B40, the “EC50 (% of hG-CSF) non-conjugated” value falls from 45 % of hG-CSF to 40 % of hG-CSF.

Going from B42 to B43, the “EC50 (% of hG-CSF) non-conjugated” value falls from 30 % of hG-CSF to 20 % of hG-CSF.

With B44 the “EC50 (% of hG-CSF) non-conjugated” value was 10 % of hG-CSF.

Biological target: T1, human G-CSF receptor
Experiment: cell-based or functional assay
Remark: another data set of the same source

B46 was tested, and the “EC50 (% of hG-CSF) conjugated to SPA-PEG 12000” value was 10 % of hG-CSF.
